Legend:
human saphenous veins = test: Ex vivo cultured human saphenous veins, intimal thickening; conditions: 10× higher levels than 100-500 nM
Procedure: Saphenous veins were cut into 0.5 cm segments, and processed immediately (●) or cultured in 10% FBS/M199 containing 15 μM control III-11c peptide (▪) or pUR4 (▴) at 37° C. for 14 days. Veins were fixed, paraffin embedded, sectioned, and stained. Morphometric analysis was performed on six randomly chosen sections using Image-Pro Plus software. The intima/media ratio was determined by dividing intima area by media area. Paired student t-test was used to analyze the data. Data are expressed as mean±S.E.M. *p<0.05.
Human saphenous veins cultured in serum containing media develop intimal hyperplasia after 14 days in culture (Soyombo et al., “Intimal Proliferation in an Organ Culture of Human Saphenous Vein,” Am J Pathol. 137(6):1401-1410 (1990); Angelini et al., “Smooth Muscle Cell Proliferation in Response to Injury in an Organ Culture of Human Saphenous Vein,” Eur J Vasc Surg. 5(1):5-12 (1991); and Slomp et al., “Nature and Origin of the Neointima in Whole Vessel Wall Organ Culture of the Human Saphenous Vein,” Virchows Arch. 428(1):59-67 (1996), which are hereby incorporated by reference in their entirety). This system thus provides an ex vivo model system for studying mechanisms that lead to intimal hyperplasia that has distinct advantages over in vitro culture systems. […]

[1] = molecular target: fibronectin-collagen interactions (Homo sapiens, UniProt P02751); test: Blocking of fibronectin-collagen interactions in cell culture; assay type: cell-based; conditions: cell culture experiments
Sequence of fibronectin-collagen interactions (P02751 32-2477): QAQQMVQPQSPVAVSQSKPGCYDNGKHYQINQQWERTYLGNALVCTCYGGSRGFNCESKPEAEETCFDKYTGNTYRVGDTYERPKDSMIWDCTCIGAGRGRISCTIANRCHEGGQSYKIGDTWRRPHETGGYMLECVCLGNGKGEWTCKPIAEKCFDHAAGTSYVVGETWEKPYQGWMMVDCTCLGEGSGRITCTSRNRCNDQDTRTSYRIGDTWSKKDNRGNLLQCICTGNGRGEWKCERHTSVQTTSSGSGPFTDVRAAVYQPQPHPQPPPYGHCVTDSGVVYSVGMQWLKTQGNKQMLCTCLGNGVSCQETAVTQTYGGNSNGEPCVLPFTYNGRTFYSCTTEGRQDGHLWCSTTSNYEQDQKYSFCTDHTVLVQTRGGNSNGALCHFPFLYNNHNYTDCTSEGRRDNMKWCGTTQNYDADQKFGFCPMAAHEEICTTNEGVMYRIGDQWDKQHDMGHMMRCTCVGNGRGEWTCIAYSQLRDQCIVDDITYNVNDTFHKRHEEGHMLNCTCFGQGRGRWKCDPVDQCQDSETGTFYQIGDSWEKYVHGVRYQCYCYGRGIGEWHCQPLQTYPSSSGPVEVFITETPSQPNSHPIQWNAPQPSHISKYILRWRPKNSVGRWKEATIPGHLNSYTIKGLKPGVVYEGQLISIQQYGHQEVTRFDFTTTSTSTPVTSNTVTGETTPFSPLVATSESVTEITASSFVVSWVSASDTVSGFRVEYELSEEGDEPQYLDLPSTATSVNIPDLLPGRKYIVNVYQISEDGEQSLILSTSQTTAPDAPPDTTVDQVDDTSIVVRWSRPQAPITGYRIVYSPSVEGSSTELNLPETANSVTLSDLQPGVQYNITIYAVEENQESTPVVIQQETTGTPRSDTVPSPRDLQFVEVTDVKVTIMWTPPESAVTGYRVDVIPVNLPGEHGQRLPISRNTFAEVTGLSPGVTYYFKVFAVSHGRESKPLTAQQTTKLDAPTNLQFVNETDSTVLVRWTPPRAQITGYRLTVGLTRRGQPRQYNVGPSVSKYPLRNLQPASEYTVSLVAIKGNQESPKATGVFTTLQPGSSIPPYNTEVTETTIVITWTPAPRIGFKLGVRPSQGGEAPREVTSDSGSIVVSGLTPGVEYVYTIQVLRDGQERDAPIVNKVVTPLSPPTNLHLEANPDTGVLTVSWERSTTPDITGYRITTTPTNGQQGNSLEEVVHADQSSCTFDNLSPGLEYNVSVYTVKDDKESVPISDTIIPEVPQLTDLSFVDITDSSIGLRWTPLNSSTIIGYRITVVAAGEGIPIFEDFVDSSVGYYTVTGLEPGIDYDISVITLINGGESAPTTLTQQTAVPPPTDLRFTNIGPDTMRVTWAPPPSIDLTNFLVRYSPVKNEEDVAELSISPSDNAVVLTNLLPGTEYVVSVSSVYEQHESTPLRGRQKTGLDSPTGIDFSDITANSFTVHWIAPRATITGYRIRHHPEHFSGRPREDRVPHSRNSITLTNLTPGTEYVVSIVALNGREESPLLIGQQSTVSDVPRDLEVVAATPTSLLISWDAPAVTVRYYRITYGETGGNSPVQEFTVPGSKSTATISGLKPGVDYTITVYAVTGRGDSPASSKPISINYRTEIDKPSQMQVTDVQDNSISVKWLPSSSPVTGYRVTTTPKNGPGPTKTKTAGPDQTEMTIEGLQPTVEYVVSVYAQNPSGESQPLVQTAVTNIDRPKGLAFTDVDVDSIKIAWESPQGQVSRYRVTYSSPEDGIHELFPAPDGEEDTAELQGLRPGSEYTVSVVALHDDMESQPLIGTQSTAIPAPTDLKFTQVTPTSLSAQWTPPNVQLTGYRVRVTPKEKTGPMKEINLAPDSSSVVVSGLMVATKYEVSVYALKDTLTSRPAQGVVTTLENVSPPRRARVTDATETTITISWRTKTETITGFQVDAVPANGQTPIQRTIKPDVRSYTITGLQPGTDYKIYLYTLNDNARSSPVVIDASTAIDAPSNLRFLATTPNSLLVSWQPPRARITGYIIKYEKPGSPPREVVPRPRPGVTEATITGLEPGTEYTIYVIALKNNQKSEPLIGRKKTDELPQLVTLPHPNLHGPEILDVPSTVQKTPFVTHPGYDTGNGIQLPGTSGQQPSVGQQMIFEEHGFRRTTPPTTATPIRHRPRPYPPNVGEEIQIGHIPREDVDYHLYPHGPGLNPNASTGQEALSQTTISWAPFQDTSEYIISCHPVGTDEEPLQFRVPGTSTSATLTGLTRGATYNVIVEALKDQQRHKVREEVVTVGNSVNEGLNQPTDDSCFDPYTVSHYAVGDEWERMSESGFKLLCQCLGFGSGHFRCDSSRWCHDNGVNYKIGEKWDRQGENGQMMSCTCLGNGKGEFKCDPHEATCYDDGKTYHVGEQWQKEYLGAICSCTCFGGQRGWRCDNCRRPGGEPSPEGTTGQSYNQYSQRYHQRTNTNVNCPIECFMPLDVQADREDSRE

B1: R1R2: class II bacterial adhesin derived peptide (SEQ ID NO: 4) that interferes with fibronectin-collagen binding (peptide)
chain: HHHHHHGSGLNGENQKEPEQGERGEAGPPLSGLSGNNQGRPSLPGLNGENQKEPEQGERGEAGPPKSN
modifications: Bacterial adhesin derived peptide R1R2
**Q.** What does the source list for B1?
**A.** intimal hyperplasia (human saphenous veins): attenuate; concentrations effective at blocking fibronectin-collagen interactions [1]: 100 to 500 nM

Source: patent publication US9364516B2, “Treatment of fibrosis-related disorders using fibronectin binding proteins and polypeptides” (priority 2010, dated 2016)
